This is an account of results in article PMC3646547 (Nature communications, 2012).

The data set “crystal structure” concerns the molecule itself. As to the kind of experiment: crystal structure.
The target in data set [1] is T1, MHF1;MHF2 (human;human, UniProt Q8N2Z9;A8MT69 1-138;1-81, |). As to the kind of experiment: fluorescence polarization. In general terms: Fluorescence polarisation rises when a labelled molecule tumbles more slowly, as on binding a larger partner.
The target in data set [2] is MHF1 K73A/R74A;MHF2;FANCM-F (human;human;human, UniProt Q8N2Z9;A8MT69;Q8IYD8 1-138;1-81;661-800, K73A;R74A||). Briefly: EMSA. On the technique in general: A gel shift assay detects complexes by their altered migration in electrophoresis.
The target in data set [3] is MHF1;MHF2 K27A/K29A;FANCM-F (human;human;human, UniProt Q8N2Z9;A8MT69;Q8IYD8 1-138;1-81;661-800, |K27A;K29A|). As to the kind of experiment: EMSA.
In data set [4] the target is T1, MHF1;MHF2. Briefly: EMSA.
The target in data set [5] is MHF1 K73A/R74A;MHF2;FANCM-F K675A/K676A (human;human;human, UniProt Q8N2Z9;A8MT69;Q8IYD8 1-138;1-81;661-800, K73A;R74A||K675A;K676A). As to the kind of experiment: EMSA.
The target in data set [6] is MHF1 R12A/R18A/K73A/R74A;MHF2;FANCM-F K686A/R690A/R693A (human;human;human, UniProt Q8N2Z9;A8MT69;Q8IYD8 1-138;1-81;661-800, R12A;R18A;K73A;R74A||K686A;R690A;R693A). Briefly: EMSA.
For another data set, the target named is MHF1 1-107;MHF2;FANCM-F (human;human;human, UniProt Q8N2Z9;A8MT69;Q8IYD8 1-107;1-81;661-800, ||). Briefly: not stated.
Data set [7] deals with MHF1 K73A/R74A;MHF2 R11A/K12A;FANCM-F K675A/K676A (human;human;human, UniProt Q8N2Z9;A8MT69;Q8IYD8 1-138;1-81;661-800, K73A;R74A|R11A;K12A|K675A;K676A). Briefly: EMSA.
Sequence of MHF1 K73A/R74A;MHF2 R11A/K12A;FANCM-F K675A/K676A (A8MT69 whole entry R11A/K12A, chain 2 of 2): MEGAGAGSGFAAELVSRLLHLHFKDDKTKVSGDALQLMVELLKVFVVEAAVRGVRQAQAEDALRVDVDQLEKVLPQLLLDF
Sequence of MHF1 K73A/R74A;MHF2 R11A/K12A;FANCM-F K675A/K676A (Q8IYD8 661-800 K675A/K676A, chain 3 of 2): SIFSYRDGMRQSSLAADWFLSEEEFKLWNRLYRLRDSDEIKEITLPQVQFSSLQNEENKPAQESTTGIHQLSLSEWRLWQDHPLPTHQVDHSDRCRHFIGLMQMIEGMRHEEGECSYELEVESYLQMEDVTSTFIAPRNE

T1 sequence (A8MT69 whole entry, one chain of several): as the sequence (A8MT69 whole entry R11A/K12A, chain 2 of 2) above, with A11R, A12K counted along it
Sequence of MHF1 R12A/R18A/K73A/R74A;MHF2;FANCM-F K686A/R690A/R693A (Q8N2Z9 whole entry R12A/R18A/K73A/R74A, chain 1 of 3): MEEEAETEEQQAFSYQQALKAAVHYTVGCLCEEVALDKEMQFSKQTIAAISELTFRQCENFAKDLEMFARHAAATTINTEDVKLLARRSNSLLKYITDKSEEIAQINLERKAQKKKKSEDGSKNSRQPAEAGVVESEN
Sequence of MHF1 R12A/R18A/K73A/R74A;MHF2;FANCM-F K686A/R690A/R693A (A8MT69 whole entry, chain 2 of 3): as the sequence (A8MT69 whole entry R11A/K12A, chain 2 of 2) above, with A11R, A12K counted along it
Sequence of MHF1 R12A/R18A/K73A/R74A;MHF2;FANCM-F K686A/R690A/R693A (Q8IYD8 661-800 K686A/R690A/R693A, chain 3 of 3): as the sequence (Q8IYD8 661-800 K675A/K676A, chain 3 of 2) above, with A15K, A16K, K26A, R30A, R33A counted along it
Sequence of MHF1 1-107;MHF2;FANCM-F (A8MT69 whole entry, chain 2 of 2): as the sequence (A8MT69 whole entry R11A/K12A, chain 2 of 2) above, with A11R, A12K counted along it
Sequence of MHF1 1-107;MHF2;FANCM-F (Q8IYD8 661-800, chain 3 of 2): as the sequence (Q8IYD8 661-800 K675A/K676A, chain 3 of 2) above, with A15K, A16K counted along it
Sequence of MHF1 K73A/R74A;MHF2;FANCM-F (A8MT69 whole entry, chain 2 of 2): as the sequence (A8MT69 whole entry R11A/K12A, chain 2 of 2) above, with A11R, A12K counted along it
Sequence of MHF1 K73A/R74A;MHF2;FANCM-F (Q8IYD8 661-800, chain 3 of 2): as the sequence (Q8IYD8 661-800 K675A/K676A, chain 3 of 2) above, with A15K, A16K counted along it
Sequence of MHF1 K73A/R74A;MHF2;FANCM-F K675A/K676A (A8MT69 whole entry, chain 2 of 2): as the sequence (A8MT69 whole entry R11A/K12A, chain 2 of 2) above, with A11R, A12K counted along it
Sequence of MHF1 K73A/R74A;MHF2;FANCM-F K675A/K676A (Q8IYD8 661-800 K675A/K676A, chain 3 of 2): as the sequence (Q8IYD8 661-800 K675A/K676A, chain 3 of 2) above
Sequence of MHF1;MHF2 K27A/K29A;FANCM-F (A8MT69 whole entry K27A/K29A, chain 2 of 2): as the sequence (A8MT69 whole entry R11A/K12A, chain 2 of 2) above, with A11R, A12K, K27A, K29A counted along it
Sequence of MHF1;MHF2 K27A/K29A;FANCM-F (Q8IYD8 661-800, chain 3 of 2): as the sequence (Q8IYD8 661-800 K675A/K676A, chain 3 of 2) above, with A15K, A16K counted along it

B1: MHF1^1-107 (truncated MHF1 with the C-terminal 31 residues deleted) (domain or fragment, human, UniProt Q8N2Z9 1-107, looked up)
chain: MEEEAETEEQQRFSYQQRLKAAVHYTVGCLCEEVALDKEMQFSKQTIAAISELTFRQCENFAKDLEMFARHAKRTTINTEDVKLLARRSNSLLKYITDKSEEIAQIN
Consider B1, for which the binding result in “crystal structure” is on record as “binds”.

B2: 59 bp dsDNA (FPA) (dsDNA)
DNA 1: ACGCTGCCGAATTCTACCAGTGCCTTGCTAGGACATCTTTGCCCACCTGCAGGTTCACC
DNA 2: GGTGAACCTGCAGGTGGGCAAAGATGTCCTAGCAAGGCACTGGTAGAATTCGGCAGCGT
On to B2, for which the binding result in the data set with MHF1;MHF2 [1] is “binds”.

B3: 59 bp dsDNA (EMSA) (dsDNA)
DNA 1: B2 DNA 1
DNA 2: B2 DNA 2
As to B3, the binding result is given as “binds” in [2]; “binds” in data set [3]; “binds” with MHF1;MHF2 [4]; “no binding” in [5]; “no binding” in data set [6]; “no binding” with MHF1 1-107;MHF2;FANCM-F. The binding result in data set [7] is recorded as “no binding”.
